According to patent US20120316071A1:

How the values were obtained:
[1] = molecular target: rHuman CD44/Fc Chimera, CF (R&D Systems Cat#3660-CD) (human) (UniProt P16070); assay: Multispot ECL (MSD), antigen spotted on plate, Fab 340 nM; blank spot 554
[2] = molecular target: rHuman ErbB2/Fc Chimera, CF (R&D Systems Cat#1129-ER) (human) (UniProt P04626); assay: as above
[3] = molecular target: rHuman P-Cadherin/Fc Chimera, CF (R&D Systems Cat#861-PC) (human) (UniProt P22223); assay: as above
[4] = molecular target: rHuman HGF R/c-MET/Fc Chimera, CF (R&D Systems Cat#358-MT/CF) (human) (UniProt P08581); assay: as above
rHuman HGF R/c-MET/Fc Chimera, CF (R&D Systems Cat#358-MT/CF) (human), sequence (P08581 25-932, change not shown): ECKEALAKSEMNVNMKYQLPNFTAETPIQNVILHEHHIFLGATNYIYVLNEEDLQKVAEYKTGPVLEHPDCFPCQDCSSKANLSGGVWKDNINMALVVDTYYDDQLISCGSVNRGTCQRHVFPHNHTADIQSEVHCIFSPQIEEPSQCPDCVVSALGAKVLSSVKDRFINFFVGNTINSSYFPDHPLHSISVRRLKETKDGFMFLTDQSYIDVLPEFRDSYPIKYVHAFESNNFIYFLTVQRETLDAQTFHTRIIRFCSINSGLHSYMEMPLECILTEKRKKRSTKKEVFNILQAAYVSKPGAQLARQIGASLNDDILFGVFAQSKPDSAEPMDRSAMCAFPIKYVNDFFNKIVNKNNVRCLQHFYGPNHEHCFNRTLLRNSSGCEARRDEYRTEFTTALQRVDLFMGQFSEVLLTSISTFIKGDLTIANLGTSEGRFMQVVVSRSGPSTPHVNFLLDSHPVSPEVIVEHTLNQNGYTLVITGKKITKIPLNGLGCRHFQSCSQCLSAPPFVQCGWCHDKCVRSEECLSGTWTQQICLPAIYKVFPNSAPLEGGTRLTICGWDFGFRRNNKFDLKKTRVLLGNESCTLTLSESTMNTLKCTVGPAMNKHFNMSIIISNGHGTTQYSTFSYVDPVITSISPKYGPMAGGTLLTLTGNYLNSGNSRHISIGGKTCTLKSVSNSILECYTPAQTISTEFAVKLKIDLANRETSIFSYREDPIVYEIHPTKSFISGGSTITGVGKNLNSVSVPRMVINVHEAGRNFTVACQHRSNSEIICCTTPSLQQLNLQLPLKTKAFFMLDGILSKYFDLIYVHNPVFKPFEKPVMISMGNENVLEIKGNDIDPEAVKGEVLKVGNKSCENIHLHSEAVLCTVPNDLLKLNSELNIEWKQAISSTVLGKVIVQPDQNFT

[5] = molecular target: rHuman Notch-1/Fc Chimera, CF (R&D Systems Cat#3647-TK) (human) (UniProt P46531); assay: as above
[6] = molecular target: rHuman EGF R/Fc Chimera, CF (R&D Systems Cat#344-ER) (human) (UniProt P00533); assay: as above
[7] = molecular target: rHuman IGF-1 sR, (IGF-1 sR), CF (R&D Systems Cat#391-GR) (human) (UniProt P08069); assay: as above
[8] = molecular target: rHuman Erythropoietin R/Fc Chimera, CF (R&D Systems Cat#963-ER) (human) (UniProt P19235); assay: as above
rHuman Erythropoietin R/Fc Chimera, CF (R&D Systems Cat#963-ER) (human), sequence (P19235 25-250, change not shown): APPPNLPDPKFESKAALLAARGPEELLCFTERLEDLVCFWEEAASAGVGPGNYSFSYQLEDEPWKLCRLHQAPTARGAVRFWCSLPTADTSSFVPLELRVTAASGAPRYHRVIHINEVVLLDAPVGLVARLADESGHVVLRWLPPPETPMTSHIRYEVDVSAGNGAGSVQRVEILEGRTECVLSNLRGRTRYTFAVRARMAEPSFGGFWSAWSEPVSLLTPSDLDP

[9] = molecular target: rHuman CD44/Fc Chimera, CF (R&D Systems Cat#3660-CD) (human) (UniProt P16070); assay: Multispot ECL (MSD), antigen spotted on plate, Fab 85.0 nM; blank spot 292
[10] = molecular target: rHuman ErbB2/Fc Chimera, CF (R&D Systems Cat#1129-ER) (human) (UniProt P04626); assay: as above
[11] = molecular target: rHuman P-Cadherin/Fc Chimera, CF (R&D Systems Cat#861-PC) (human) (UniProt P22223); assay: as above
[12] = molecular target: rHuman HGF R/c-MET/Fc Chimera, CF (R&D Systems Cat#358-MT/CF) (human) (UniProt P08581); assay: as above
[13] = molecular target: rHuman Notch-1/Fc Chimera, CF (R&D Systems Cat#3647-TK) (human) (UniProt P46531); assay: as above
[14] = molecular target: rHuman EGF R/Fc Chimera, CF (R&D Systems Cat#344-ER) (human) (UniProt P00533); assay: as above
[15] = molecular target: rHuman IGF-1 sR, (IGF-1 sR), CF (R&D Systems Cat#391-GR) (human) (UniProt P08069); assay: as above
[16] = molecular target: rHuman Erythropoietin R/Fc Chimera, CF (R&D Systems Cat#963-ER) (human) (UniProt P19235); assay: as above
[17] = molecular target: rHuman CD44/Fc Chimera, CF (R&D Systems Cat#3660-CD) (human) (UniProt P16070); assay: Multispot ECL (MSD), antigen spotted on plate, Fab 170 nM; blank spot 262
[18] = molecular target: rHuman ErbB2/Fc Chimera, CF (R&D Systems Cat#1129-ER) (human) (UniProt P04626); assay: as above
[19] = molecular target: rHuman P-Cadherin/Fc Chimera, CF (R&D Systems Cat#861-PC) (human) (UniProt P22223); assay: as above
[20] = molecular target: rHuman HGF R/c-MET/Fc Chimera, CF (R&D Systems Cat#358-MT/CF) (human) (UniProt P08581); assay: as above
[21] = molecular target: rHuman Notch-1/Fc Chimera, CF (R&D Systems Cat#3647-TK) (human) (UniProt P46531); assay: as above
[22] = molecular target: rHuman EGF R/Fc Chimera, CF (R&D Systems Cat#344-ER) (human) (UniProt P00533); assay: as above
[23] = molecular target: rHuman IGF-1 sR, (IGF-1 sR), CF (R&D Systems Cat#391-GR) (human) (UniProt P08069); assay: as above
[24] = molecular target: rHuman Erythropoietin R/Fc Chimera, CF (R&D Systems Cat#963-ER) (human) (UniProt P19235); assay: as above
[25] = molecular target: rHuman CD44/Fc Chimera, CF (R&D Systems Cat#3660-CD) (human) (UniProt P16070); assay: Multispot ECL (MSD), antigen spotted on plate, Fab […]; blank spot 162
[26] = molecular target: rHuman ErbB2/Fc Chimera, CF (R&D Systems Cat#1129-ER) (human) (UniProt P04626); assay: as above
[27] = molecular target: rHuman P-Cadherin/Fc Chimera, CF (R&D Systems Cat#861-PC) (human) (UniProt P22223); assay: as above
[28] = molecular target: rHuman HGF R/c-MET/Fc Chimera, CF (R&D Systems Cat#358-MT/CF) (human) (UniProt P08581); assay: as above
[29] = molecular target: rHuman Notch-1/Fc Chimera, CF (R&D Systems Cat#3647-TK) (human) (UniProt P46531); assay: as above
[30] = molecular target: rHuman EGF R/Fc Chimera, CF (R&D Systems Cat#344-ER) (human) (UniProt P00533); assay: as above
[31] = molecular target: rHuman IGF-1 sR, (IGF-1 sR), CF (R&D Systems Cat#391-GR) (human) (UniProt P08069); assay: as above
[32] = molecular target: rHuman Erythropoietin R/Fc Chimera, CF (R&D Systems Cat#963-ER) (human) (UniProt P19235); assay: as above

ECL signal [1]: 959
ECL signal [2]: 1230
ECL signal [3]: 1160
ECL signal [4]: 1240
ECL signal [5]: 1210
ECL signal [6]: 1210
ECL signal [7]: 1040
ECL signal [8]: 1260
ECL signal [9]: 693
ECL signal [10]: 844
ECL signal [11]: 709
ECL signal [12]: 998
ECL signal [13]: 780
ECL signal [14]: 1000
ECL signal [15]: 891
ECL signal [16]: 817
ECL signal [17]: 660
ECL signal [18]: 964
ECL signal [19]: 744
ECL signal [20]: 757
ECL signal [21]: 816
ECL signal [22]: 826
ECL signal [23]: 832
ECL signal [24]: 790
ECL signal [25]: 522
ECL signal [26]: 866
ECL signal [27]: 421
ECL signal [28]: 607
ECL signal [29]: 649
ECL signal [30]: 528
ECL signal [31]: 646
ECL signal [32]: 494
B1: Fab VH4-34_IGHD7-27*01_IGHJ4*01 & V4-6_IGLJ4*01 (Fab, V domains shown)
VH: QVQLQQWGAGLLKPSETLSLTCAVYGGSFSGYYWSWIRQPPGKGLEWIGEINHSGSTNYNPSLKSRVTISVDTSKNQFSLKLSSVTAADTAVYYCARANWGDYFDYWGQGTLVTVSS
VL: RPVLTQPPSLSASPGATARLPCTLSSDLSVGGKNMFWYQQKPGSSPRLFLYHYSDSDKQLGPGVPSRVSGSKETSSNTAFLLISGLQPEDEADYYCQVYESSANFVFGGGTQLIIL
